In the supplement of paper PMC10126150:
± gives the standard deviation of the averaged measurements.

system: ATP; assay: switch fluorescence ratio, 500 uM ATP over buffer (Cy3 cluster intensity, sum of 5 cycles each) (fold (ratio)); higher = stronger signal-on switching upon ATP binding; sequences stand for … in TCGTCGGCAGCGTCAGATGTGTATAAGAGACAGTTTTTTTTTTTTTTTTTTTTTTTTT…TC; conditions: aptamer strand: ATP DNA aptamer (quencher-CACCTGGGGGAGTATTGCGGAGGAAGG + anchor), 100 nM annealed; ATP concentration: 500 uM
Method in brief: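 Five buffer/ATP imaging cycles were run on Cy3-labelled switching-strand clusters on a modified Illumina MiSeq flow-cell, with NaOH stripping and re-annealing between cycles. In each cycle, clusters annealed to 100 nM quencher-labelled ATP aptamer were imaged in selection buffer, then after 15 min with 500 uM ATP at 22 °C. Per cluster, the fluorescence ratio is summed target-cycle over summed buffer-cycle Cy3 intensity, averaged per switch-domain sequence. Only clusters within 100-1000 RFU were kept.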
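Further: ATP exposure 15 min at 22 °C before imaging.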

Sequence | switch fluorescence ratio
CGTGTAGTGG | 0.984 ± 0.018
CGTGTATTCG | 1.01 ± 0.031
CGTGTCCAGG | 1.3 ± 0.024
CGTGTCCGTG | 1.01 ± 0.011
CGTGTCGACA | 0.9631 ± 0.0068
CGTGTCGCTG | 0.971 ± 0.024
CGTGTGCATG | 1.06 ± 0.13
CGTGTGGGAC | 1.0136 ± 0.00016
CGTGTGGTTT | 1.03 ± 0.037
CGTGTGTACA | 0.98 ± 0.01
CGTGTGTGGC | 1.02 ± 0.0032
CGTGTTGGCT | 1.072 ± 0.0032
CGTGTTGGTC | 1 ± 0.012
CGTGTTTTTT | 0.991 ± 0.029
CGTTAAATGT | 0.998 ± 0.022
CGTTAAGTTA | 0.974 ± 0.012
CGTTAATTAG | 1.02 ± 0.042
CGTTAATTTA | 1.01 ± 0.034
CGTTACAAGC | 1.1 ± 0.086
CGTTACACAA | 1.04 ± 0.035
CGTTAGCAGA | 1.19 ± 0.086
CGTTAGCATT | 1.17 ± 0.027
CGTTAGGATG | 0.984 ± 0.011
CGTTATGAGG | 0.991 ± 0.011
CGTTATTAGC | 1.033 ± 0.01
CGTTATTGCT | 1.016 ± 0.0039

Sequence | switch fluorescence ratio
CGTTCATGGG | 0.993 ± 0.017
CGTTCCGGGC | 1.2 ± 0.12
CGTTCGCGCG | 1.02 ± 0.023
CGTTCGTGGG | 0.953 ± 0.018
CGTTCTATTC | 1.11 ± 0.17
CGTTGAGACC | 0.995 ± 0.019
CGTTGAGTAT | 0.981 ± 0.019
CGTTGAGTTG | 0.986 ± 0.032
CGTTGAGTTT | 0.994 ± 0.047
CGTTGCACAT | 1.07 ± 0.016
CGTTGCGAGT | 0.9726 ± 0.009
CGTTGCGCTA | 1.1 ± 0.012
CGTTGCTACA | 1.01 ± 0.019
CGTTGGAAGC | 0.982 ± 0.018
CGTTGGAATC | 1.12 ± 0.014
CGTTGGCATA | 1.149 ± 0.0065
CGTTGGCGGT | 1.02 ± 0.043
CGTTGGGATC | 0.99281 ± 0.00021
CGTTGGGGGA | 0.997 ± 0.029
CGTTGGTGCG | 0.98 ± 0.059
CGTTGGTTCC | 1.034 ± 0.0058
CGTTGTGGGG | 0.966 ± 0.023
CGTTTAAATC | 0.986 ± 0.013
CGTTTACCGT | 0.983 ± 0.019
CGTTTATAGG | 1.015 ± 0.009
CGTTTATAGT | 1.02 ± 0.039

Sequence | switch fluorescence ratio
CGTTTCATTT | 0.995 ± 0.027
CGTTTCCCGG | 0.992 ± 0.031
CGTTTCGTCT | 1.05 ± 0.024
CGTTTGAAGC | 0.978 ± 0.059
CGTTTGATTA | 0.989 ± 0.017
CGTTTGGAAT | 1.03 ± 0.051
CGTTTGGACA | 0.9893 ± 0.0051
CGTTTGGCGG | 0.987 ± 0.064
CGTTTGTATA | 0.987 ± 0.015
CGTTTGTGAT | 0.9993 ± 0.0076
CGTTTGTGCG | 1.01 ± 0.053
CGTTTGTTAT | 1.05 ± 0.04
CGTTTGTTCG | 1.03 ± 0.071
CGTTTTGAGG | 0.96 ± 0.034
CGTTTTGGCA | 1.02 ± 0.027
CGTTTTGTGA | 1 ± 0.0054
CGTTTTTAGT | 1.002 ± 0.0072
CGTTTTTGCC | 1.0037 ± 0.00025
CTAAAAACGG | 1.002 ± 0.01
CTAAAATGAA | 1.03 ± 0.018
CTAAACCTGG | 1.13 ± 0.034
CTAAAGGTTT | 1.004 ± 0.003
CTAAATAGAA | 0.983 ± 0.074
CTAAATAGCA | 1.01 ± 0.016
CTAAATCGGC | 1.03 ± 0.035
CTAAATGAGC | 0.979 ± 0.02

Sequence | switch fluorescence ratio
CTAAATTTC | 1.02 ± 0.08
CTAACGCCTT | 1.13 ± 0.042
CTAACGTGAG | 1.02 ± 0.034
CTAACTTGCG | 0.995 ± 0.014
CTAAGCAGGG | 1.01 ± 0.016
CTAAGGTAAG | 0.981 ± 0.049
CTAATACTAG | 0.982 ± 0.047
CTAATGAGGG | 1.02 ± 0.036
CTAATGCGGA | 1.01 ± 0.019
CTAATGGAGG | 1.01 ± 0.011
CTAATGGGTG | 1.02 ± 0.02
CTAATTGCAA | 1.05 ± 0.066
CTAATTGGCG | 1.02 ± 0.04
CTAATTTCGT | 0.992 ± 0.014
CTAATTTTGT | 0.995 ± 0.014
CTACGGCATA | 3.11 ± 0.11
CTACGGGGTG | 1.01 ± 0.046
CTACTAGAGC | 1.02 ± 0.044
CTACTTTGGG | 1.01 ± 0.027
CTAGAAGGGA | 0.9965 ± 0.0049
CTAGAGGGCG | 1.014 ± 0.0084
CTAGATGTAT | 0.985 ± 0.017
CTAGATGTGG | 0.983 ± 0.059
CTAGCACTGT | 1.045 ± 0.0022
CTAGCCGGGG | 1.01 ± 0.031
CTAGGAGATA | 0.9736 ± 0.0014

Sequence | switch fluorescence ratio
CTAGGCAACG | 0.982 ± 0.028
CTAGGGCGCT | 0.983 ± 0.032
CTAGGGGATA | 1.02 ± 0.014
CTAGGGGGCA | 0.982 ± 0.037
CTAGGGTAAT | 0.9675 ± 0.0036
CTAGGGTGTG | 0.988 ± 0.034
CTAGGTATCA | 0.965 ± 0.054
CTAGGTGGGT | 1.01 ± 0.027
CTAGGTTCGC | 1.01 ± 0.012
CTAGTCACCG | 0.999 ± 0.019
CTAGTCGTCG | 1.02 ± 0.019
CTAGTGATTG | 0.99358 ± 0.0003
CTAGTGGCTG | 1.02 ± 0.03
CTAGTTAAGT | 0.991 ± 0.073
CTAGTTCAGC | 0.99 ± 0.028
CTAGTTTGGT | 1.008 ± 0.0049
CTATAAGGGG | 0.999 ± 0.026
CTATACAGCA | 1.06 ± 0.044
CTATACAGTG | 1.02 ± 0.011
CTATACTGAG | 1.05 ± 0.045
CTATAGAAGG | 1.02 ± 0.025
CTATAGATTT | 0.973 ± 0.02
CTATAGGGGG | 1.007 ± 0.01
CTATAGGTCA | 0.981 ± 0.036
CTATCACCTG | 1.05 ± 0.021
CTATCGATAG | 0.993 ± 0.035

Sequence | switch fluorescence ratio
CTATCGGGAC | 1.09 ± 0.026
CTATCGGGAG | 0.9831 ± 0.0025
CTATCTGTTT | 0.9561 ± 0.002
CTATGAAAAG | 1 ± 0.021
CTATGAAGGG | 0.963 ± 0.034
CTATGCGGAA | 1.06 ± 0.038
CTATGCGGTC | 2.39 ± 1.8
CTATGCTGGT | 1.01 ± 0.037
CTATGGTTTT | 1.014 ± 0.003
CTATGTCGGT | 0.974 ± 0.015
CTATTAAGGG | 0.976 ± 0.056
CTATTAATGA | 1.03 ± 0.057
CTATTATGTT | 1 ± 0.019
CTATTCAGGT | 1.01 ± 0.032
CTATTCCTGT | 0.995 ± 0.014
CTATTCGGCC | 0.986 ± 0.02
CTATTCGGGG | 0.981 ± 0.01
CTATTGGGAG | 1.03 ± 0.032
CTATTGTTTT | 1.03 ± 0.079
CTATTTCATA | 0.992 ± 0.018
CTATTTCCTT | 0.975 ± 0.031
CTATTTGGCA | 1.0113 ± 4.2e-05
CTATTTTGGC | 0.966 ± 0.038
